Results reported in the supplement of paper PMC9112550, “Optimization of the antimicrobial peptide Bac7 by deep mutational scanning” (BMC Biology, 2022).

The sequences below were run on Escherichia coli TOP10 (assay: shrunken log2 fold change of peptide-encoding DNA abundance (4.5 h post-induction vs induction); higher = less antimicrobial activity (less host growth inhibition)). Details: time post-induction: 4.5 h; library: site-saturation at positions 5, 18, 19, 20.
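Note: peptides expressed intracellularly from a pBAD plasmid library in pooled LB shake-flask culture, induced with 0.3% L-arabinose, DNA abundance read by NGS, three biological replicates, DESeq2 with apeglm shrinkage.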

| Sequence | shrunken log2 fold change |
| --- | --- |
| RRIRQRPPRLPRPRPRPFQHPRP | -0.117 |
| RRIRDRPPRLPRPRPRPMAAPRP | 0.0982 |
| RRIRMRPPRLPRPRPRPQNMPRP | -0.631 |
| RRIRARPPRLPRPRPRPMCDPRP | 0.526 |
| RRIRSRPPRLPRPRPRPQQHPRP | 0.0668 |
| RRIRVRPPRLPRPRPRPLTAPRP | 0.106 |
| RRIRRRPPRLPRPRPRPIFVPRP | 0.0119 |
| RRIRDRPPRLPRPRPRPMCFPRP | 0.0878 |
| RRIRFRPPRLPRPRPRPGPIPRP | 0.218 |
| RRIRNRPPRLPRPRPRPQVSPRP | -0.434 |
| RRIRLRPPRLPRPRPRPWCVPRP | -0.35 |
| RRIRPRPPRLPRPRPRPVSAPRP | 0.249 |
| RRIRKRPPRLPRPRPRPYVMPRP | -0.223 |
| RRIRYRPPRLPRPRPRPSALPRP | -0.638 |
| RRIRIRPPRLPRPRPRPQYHPRP | -0.436 |
| RRIRIRPPRLPRPRPRPSPIPRP | -0.574 |
| RRIRQRPPRLPRPRPRPAPAPRP | 0.707 |
| RRIRMRPPRLPRPRPRPLTKPRP | 0.212 |
| RRIRGRPPRLPRPRPRPQKYPRP | -0.0606 |
| RRIRTRPPRLPRPRPRPNCEPRP | 0.111 |
| RRIRIRPPRLPRPRPRPCMDPRP | -0.695 |
| RRIRARPPRLPRPRPRPINHPRP | -0.376 |
| RRIRWRPPRLPRPRPRPFMWPRP | -0.0278 |
| RRIRVRPPRLPRPRPRPAVKPRP | 0.318 |
| RRIRQRPPRLPRPRPRPATRPRP | 0.616 |

| Sequence | shrunken log2 fold change |
| --- | --- |
| RRIRNRPPRLPRPRPRPIVNPRP | 0.0189 |
| RRIRWRPPRLPRPRPRPNWMPRP | -0.11 |
| RRIRWRPPRLPRPRPRPPWDPRP | 0.131 |
| RRIRIRPPRLPRPRPRPAIFPRP | -0.102 |
| RRIRHRPPRLPRPRPRPYDFPRP | -0.0434 |
| RRIRDRPPRLPRPRPRPQLEPRP | -0.0748 |
| RRIRMRPPRLPRPRPRPVNNPRP | -0.0848 |
| RRIRMRPPRLPRPRPRPAVVPRP | 0.287 |
| RRIRYRPPRLPRPRPRPSRTPRP | -0.342 |
| RRIRHRPPRLPRPRPRPELPPRP | -0.056 |
| RRIRPRPPRLPRPRPRPYWIPRP | -0.509 |
| RRIRLRPPRLPRPRPRPYSAPRP | -0.693 |
| RRIRPRPPRLPRPRPRPKGMPRP | 0.129 |
| RRIRQRPPRLPRPRPRPGDEPRP | 0.021 |
| RRIRLRPPRLPRPRPRPTNAPRP | 0.00567 |
| RRIRDRPPRLPRPRPRPDMQPRP | 1.13 |
| RRIRSRPPRLPRPRPRPSRWPRP | 0.188 |
| RRIRNRPPRLPRPRPRPFWIPRP | 0.0948 |
| RRIRFRPPRLPRPRPRPMTIPRP | -0.182 |
| RRIRLRPPRLPRPRPRPVAVPRP | 0.0513 |
| RRIRIRPPRLPRPRPRPQYNPRP | -1.12 |
| RRIRQRPPRLPRPRPRPDFEPRP | 0.0209 |
| RRIRWRPPRLPRPRPRPGEGPRP | 0.154 |
| RRIRNRPPRLPRPRPRPNNIPRP | -0.551 |
| RRIRNRPPRLPRPRPRPMEPPRP | -0.0573 |

| Sequence | shrunken log2 fold change |
| --- | --- |
| RRIRLRPPRLPRPRPRPFFIPRP | -0.396 |
| RRIRPRPPRLPRPRPRPGPHPRP | 0.134 |
| RRIRPRPPRLPRPRPRPRPVPRP | 0.528 |
| RRIRARPPRLPRPRPRPMWGPRP | 0.115 |
| RRIRQRPPRLPRPRPRPWIQPRP | -0.251 |
| RRIRNRPPRLPRPRPRPAAPPRP | 0.331 |
| RRIRYRPPRLPRPRPRPKHFPRP | -0.327 |
| RRIRCRPPRLPRPRPRPPEQPRP | 2.18 |
| RRIRPRPPRLPRPRPRPKHRPRP | 0.0187 |
| RRIRFRPPRLPRPRPRPCHKPRP | -0.443 |
| RRIRRRPPRLPRPRPRPPDWPRP | 0.618 |
| RRIRCRPPRLPRPRPRPGYMPRP | -0.836 |
| RRIRLRPPRLPRPRPRPIGEPRP | -0.169 |
| RRIRTRPPRLPRPRPRPCMPPRP | -0.143 |
| RRIRFRPPRLPRPRPRPKYRPRP | 0.225 |
| RRIRHRPPRLPRPRPRPALQPRP | 0.0339 |
| RRIRWRPPRLPRPRPRPNRCPRP | 0.0312 |
| RRIRFRPPRLPRPRPRPYNQPRP | -0.881 |
| RRIRQRPPRLPRPRPRPMTMPRP | -0.243 |
| RRIRIRPPRLPRPRPRPPHFPRP | -0.138 |
| RRIRYRPPRLPRPRPRPAAAPRP | 0.455 |
| RRIRDRPPRLPRPRPRPGNKPRP | -0.0705 |
| RRIRWRPPRLPRPRPRPFILPRP | -0.476 |
| RRIRPRPPRLPRPRPRPWALPRP | -0.0895 |
| RRIRTRPPRLPRPRPRPICDPRP | -0.168 |

| Sequence | shrunken log2 fold change |
| --- | --- |
| RRIRMRPPRLPRPRPRPLMSPRP | 0.00915 |
| RRIRQRPPRLPRPRPRPMVEPRP | 0.168 |
| RRIRVRPPRLPRPRPRPHQQPRP | -0.0863 |
| RRIRPRPPRLPRPRPRPGRYPRP | 0.37 |
| RRIRQRPPRLPRPRPRPFIWPRP | -0.357 |
| RRIRLRPPRLPRPRPRPLTCPRP | -0.0184 |
| RRIRNRPPRLPRPRPRPETSPRP | 0.24 |
| RRIRWRPPRLPRPRPRPKTYPRP | -0.421 |
| RRIRHRPPRLPRPRPRPTRNPRP | -0.0346 |
| RRIRQRPPRLPRPRPRPKFHPRP | -0.0648 |
| RRIRFRPPRLPRPRPRPHHTPRP | -0.597 |
| RRIRMRPPRLPRPRPRPKRYPRP | 0.407 |
| RRIRSRPPRLPRPRPRPRTGPRP | 0.185 |
| RRIRNRPPRLPRPRPRPWHIPRP | -0.325 |
| RRIRLRPPRLPRPRPRPFSSPRP | -0.000451 |
| RRIRMRPPRLPRPRPRPREFPRP | 0.0273 |
| RRIRIRPPRLPRPRPRPTHQPRP | 0.0537 |
| RRIRQRPPRLPRPRPRPMQNPRP | -0.324 |
| RRIRHRPPRLPRPRPRPTVMPRP | -0.0285 |
| RRIRWRPPRLPRPRPRPYKKPRP | -0.225 |
| RRIRPRPPRLPRPRPRPRRNPRP | -0.0266 |
| RRIRQRPPRLPRPRPRPGWPPRP | 0.514 |
| RRIRDRPPRLPRPRPRPTEEPRP | 0.355 |
| RRIRQRPPRLPRPRPRPLKDPRP | -0.164 |
| RRIRNRPPRLPRPRPRPEGAPRP | 2.8 |

| Sequence | shrunken log2 fold change |
| --- | --- |
| RRIRYRPPRLPRPRPRPHDHPRP | 1.33 |
| RRIRYRPPRLPRPRPRPPFFPRP | -0.0804 |
| RRIRARPPRLPRPRPRPCYYPRP | -0.508 |
| RRIRWRPPRLPRPRPRPCAHPRP | -0.107 |
| RRIRPRPPRLPRPRPRPCARPRP | 0.0698 |
| RRIRWRPPRLPRPRPRPDKPPRP | 0.0507 |
| RRIRFRPPRLPRPRPRPMAIPRP | -0.226 |
| RRIRKRPPRLPRPRPRPSSRPRP | -0.038 |
| RRIRPRPPRLPRPRPRPWQMPRP | 0.0571 |
| RRIRARPPRLPRPRPRPCVTPRP | 0.176 |
| RRIRQRPPRLPRPRPRPLSGPRP | -0.252 |
| RRIRRRPPRLPRPRPRPMWDPRP | 0.164 |
| RRIRTRPPRLPRPRPRPWYGPRP | -0.379 |
| RRIRPRPPRLPRPRPRPDMMPRP | -0.0321 |
| RRIRKRPPRLPRPRPRPLYDPRP | -0.0647 |
| RRIRNRPPRLPRPRPRPTMMPRP | 0.0241 |
| RRIRRRPPRLPRPRPRPETTPRP | 1.09 |
| RRIRYRPPRLPRPRPRPKFWPRP | 0.449 |
| RRIRHRPPRLPRPRPRPDMCPRP | -0.173 |
| RRIRRRPPRLPRPRPRPHGKPRP | 0.0359 |
| RRIRRRPPRLPRPRPRPLWPPRP | 0.484 |
| RRIRHRPPRLPRPRPRPGHDPRP | 0.0104 |
| RRIRKRPPRLPRPRPRPHHYPRP | -0.737 |
| RRIRVRPPRLPRPRPRPANKPRP | -0.36 |
| RRIRPRPPRLPRPRPRPSCEPRP | -0.386 |

| Sequence | shrunken log2 fold change |
| --- | --- |
| RRIRDRPPRLPRPRPRPGDDPRP | 0.636 |
| RRIRTRPPRLPRPRPRPKFMPRP | -0.0326 |
| RRIRIRPPRLPRPRPRPNWTPRP | 0.117 |
| RRIRHRPPRLPRPRPRPWKHPRP | -0.0222 |
| RRIRKRPPRLPRPRPRPWIVPRP | -0.056 |
| RRIRKRPPRLPRPRPRPMHLPRP | -0.0647 |
| RRIRNRPPRLPRPRPRPEVEPRP | 0.154 |
| RRIRMRPPRLPRPRPRPAWIPRP | 0.052 |
| RRIRRRPPRLPRPRPRPGAPPRP | 0.891 |
| RRIRWRPPRLPRPRPRPPHKPRP | 0.339 |
| RRIRVRPPRLPRPRPRPDNHPRP | 0.0415 |
| RRIRKRPPRLPRPRPRPLDTPRP | 0.000649 |
| RRIRLRPPRLPRPRPRPVVMPRP | -0.282 |
| RRIRMRPPRLPRPRPRPGKIPRP | 0.0308 |
| RRIRVRPPRLPRPRPRPCCKPRP | 0.905 |
| RRIRYRPPRLPRPRPRPKPWPRP | 0.03 |
| RRIRFRPPRLPRPRPRPVMTPRP | -0.218 |
| RRIRHRPPRLPRPRPRPMHIPRP | -1.93 |
| RRIRNRPPRLPRPRPRPGPIPRP | 0.058 |
| RRIRRRPPRLPRPRPRPSMEPRP | 0.0198 |
| RRIRKRPPRLPRPRPRPMKCPRP | 0.0794 |
| RRIRWRPPRLPRPRPRPLVCPRP | 0.476 |
| RRIRRRPPRLPRPRPRPHYLPRP | -0.156 |
| RRIRQRPPRLPRPRPRPVDTPRP | -0.183 |
| RRIRRRPPRLPRPRPRPVDCPRP | 0.12 |
